Ends that are not written are not given here.

B1: PLEKHM1‐LIR W635F peptide (biotinylated 9-mer) (peptide, UniProt Q9Y4G2 632-640, looked up)
peptide: EDEFVNVQY
modifications: also: biotinylated
notes: PLEKHM1 LIR; source: bought: JPT (biotinylated peptide)
B2: PLEKHM1‐LIR N637V peptide (biotinylated 9-mer) (peptide, UniProt Q9Y4G2 632-640, looked up)
peptide: EDEWVVVQY
modifications: also: biotinylated
notes: as for B1
B3: PLEKHM1‐LIR N637F peptide (biotinylated 9-mer) (peptide, UniProt Q9Y4G2 632-640, looked up)
peptide: EDEWVFVQY
modifications: also: biotinylated
notes: as for B1
B4: PLEKHM1‐LIR V638I peptide (biotinylated 9-mer) (peptide, UniProt Q9Y4G2 632-640, looked up)
peptide: EDEWVNIQY
modifications: also: biotinylated
notes: as for B1
B5: PLEKHM1‐LIR N637I peptide (biotinylated 9-mer) (peptide, UniProt Q9Y4G2 632-640, looked up)
peptide: EDEWVIVQY
modifications: also: biotinylated
notes: as for B1
B6: PLEKHM1‐LIR N637W peptide (biotinylated 9-mer) (peptide, UniProt Q9Y4G2 632-640, looked up)
peptide: EDEWVWVQY
modifications: also: biotinylated
notes: as for B1
B7: PLEKHM1‐LIR N637Y peptide (biotinylated 9-mer) (peptide, UniProt Q9Y4G2 632-640, looked up)
peptide: EDEWVYVQY
modifications: also: biotinylated
notes: as for B1
B8: PLEKHM1‐LIR WT peptide (EDEWVNVQY), biotinylated (peptide)
peptide: EDEWVNVQY
modifications: also: biotinylated
notes: PLEKHM1 LIR; also called PLEKHM1 LIR 632–640; source: bought: JPT (biotinylated peptide)
B9: PLEKHM1‐LIR V636C peptide (biotinylated 9-mer) (peptide, UniProt Q9Y4G2 632-640, looked up)
peptide: EDEWCNVQY
modifications: also: biotinylated
notes: as for B1
B10: PLEKHM1‐LIR N637L peptide (biotinylated 9-mer) (peptide, UniProt Q9Y4G2 632-640, looked up)
peptide: EDEWVLVQY
modifications: also: biotinylated
notes: as for B1
B11: PLEKHM1‐LIR W635Y peptide (biotinylated 9-mer) (peptide, UniProt Q9Y4G2 632-640, looked up)
peptide: EDEYVNVQY
modifications: also: biotinylated
notes: as for B1
B12: PLEKHM1‐LIR V638L peptide (biotinylated 9-mer) (peptide, UniProt Q9Y4G2 632-640, looked up)
peptide: EDEWVNLQY
modifications: also: biotinylated
notes: as for B1
B13: PLEKHM1‐LIR N637C peptide (biotinylated 9-mer) (peptide, UniProt Q9Y4G2 632-640, looked up)
peptide: EDEWVCVQY
modifications: also: biotinylated
notes: as for B1
B14: PLEKHM1‐LIR N637A peptide (biotinylated 9-mer) (peptide, UniProt Q9Y4G2 632-640, looked up)
peptide: EDEWVAVQY
modifications: also: biotinylated
notes: as for B1
B15: PLEKHM1‐LIR V636G peptide (ITC) (peptide)
chain: PQQEDEWGNVQYPD
modifications: limits taken from the WT ITC peptide (P629-D642); N-terminal GAMG cloning remnant, printed only for WT, left out
B16: PLEKHM1‐LIR W635A peptide (ITC) (peptide)
chain: PQQEDEAVNVQYPD
modifications: limits taken from the WT ITC peptide (P629-D642); N-terminal GAMG cloning remnant, printed only for WT, left out

In the first experiment the target is T1, 6xHis‐tagged GABARAP‐L2 (human, UniProt P60520 1-117).
T1 construct: GABARAP-L2/GATE-16, human; also called His6‐GABARAP‐L2; GATE‐16; source: E. coli, isolated
T1 sequence (P60520 whole entry): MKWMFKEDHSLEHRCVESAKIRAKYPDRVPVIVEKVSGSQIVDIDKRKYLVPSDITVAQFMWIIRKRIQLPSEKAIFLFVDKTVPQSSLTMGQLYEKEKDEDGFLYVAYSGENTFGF
Briefly: ELISA; called peptide array: biotinylated peptides immobilised on streptavidin-coated 96-well plates; 1 μM His6-mATG8 in PBS, 0.1% Tween-20, 1% BSA, 1 h, 8°C; anti-His-HRP, TMB, absorbance at 450 nm. As to conditions: both partners purified.
With B1, the binding result is listed as “binds”.

As to B2, the binding result is “binds”.

As for B3, the binding result is “binds”.

As for B4, the binding result is “binds”.

Regarding B5, the binding result was “binds”.

As for B6, the binding result was “binds”.

As for B7, the binding result was “binds”.

On to B8, for which the binding result is “binds”.

For B9, the binding result is given as “binds”.

Turning to B10, the binding result is “binds”.

With B11, the binding result is “binds”.

For the molecule B12, the binding result is “binds”.

Turning to B13, the binding result is listed as “binds”.

For B14, the binding result is given as “binds”.

The target in another experiment is T2, 6xHis‐tagged GABARAP‐L1 (human, UniProt Q9H0R8 1-117).
T2 construct: GABARAP-L1, human; also called His6‐GABARAP‐L1; source: E. coli, isolated
T2 sequence (Q9H0R8 whole entry, looked up): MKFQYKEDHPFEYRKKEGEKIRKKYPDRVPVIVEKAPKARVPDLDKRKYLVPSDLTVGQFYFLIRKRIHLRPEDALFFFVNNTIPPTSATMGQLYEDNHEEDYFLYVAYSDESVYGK
Described as above. The settings on record: both partners purified.
Regarding B1, the binding result is reported as “binds”.

In the case of B2, the binding result is listed as “binds”.

On to B3, for which the binding result is on record as “binds”.

On to B4, for which the binding result was “binds”.

For B5, the binding result is “binds”.

Consider B6, for which the binding result is “binds”.

Take B7: the binding result is “binds”.

B8: the binding result was “binds”.

For B9, the binding result is recorded as “binds”.

As for B10, the binding result is given as “binds”.

Consider B11, for which the binding result is “binds”.

On to B12, for which the binding result is recorded as “binds”.

For the molecule B13, the binding result is reported as “binds”.

With B14, the binding result is on record as “binds”.

In a further experiment the target is T3, 6xHis‐tagged LC3A (human, UniProt Q9H492 1-121).
T3 construct: LC3A (MAP1LC3A), human; also called His6‐LC3A; MAP1LC3A; source: E. coli, isolated
Described as above. As to conditions: both partners purified.
On to B1, for which the binding result is given as “binds”.

Consider B2, for which the binding result was “binds”.

For the molecule B3, the binding result is given as “binds”.

B4: the binding result is given as “binds”.

As to B5, the binding result is reported as “binds”.

In the case of B6, the binding result is listed as “binds”.

With B7, the binding result is given as “binds”.

In the case of B8, the binding result is “binds”.

On to B9, for which the binding result was “binds”.

On to B10, for which the binding result is listed as “binds”.

B11: the binding result was “binds”.

On to B12, for which the binding result was “binds”.

As for B13, the binding result is listed as “binds”.

For the next experiment, the target named is 6xHis‐tagged LC3B (human, UniProt Q9GZQ8 1-120). The experiment is described as above. The settings on record: both partners purified.
In the case of B1, the binding result is “binds”.

As for B2, the binding result is “binds”.

Take B3: the binding result is reported as “binds”.

As for B4, the binding result was “binds”.

In the case of B5, the binding result is “binds”.

Regarding B6, the binding result was “binds”.

In the case of B7, the binding result is recorded as “binds”.

B8: the binding result was “binds”.

Consider B9, for which the binding result was “binds”.

Turning to B10, the binding result is given as “binds”.

Take B11: the binding result is recorded as “binds”.

For B12, the binding result was “binds”.

Turning to B13, the binding result is on record as “binds”.

The target in another experiment is T4, 6xHis‐tagged GABARAP (human, UniProt O95166 1-117).
T4 construct: GABARAP, human; also called His6‐GABARAP; source: E. coli, isolated
T4 sequence (O95166 whole entry): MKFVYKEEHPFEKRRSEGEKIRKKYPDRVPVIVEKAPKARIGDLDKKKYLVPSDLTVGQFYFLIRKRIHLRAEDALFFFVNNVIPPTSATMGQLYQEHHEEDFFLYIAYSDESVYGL
The description is as above. The settings on record: both partners purified.
For the molecule B1, the binding result was “binds”.

With B2, the binding result is “binds”.

Take B3: the binding result is on record as “binds”.

On to B4, for which the binding result is “binds”.

B5: the binding result is recorded as “binds”.

With B6, the binding result is on record as “binds”.

For the molecule B7, the binding result is listed as “binds”.

As to B8, the binding result was “binds”.

Consider B9, for which the binding result is recorded as “binds”.

B10: the binding result is recorded as “binds”.

Take B11: the binding result was “binds”.

For the molecule B12, the binding result is listed as “binds”.

As to B13, the binding result was “binds”.

Regarding B14, the binding result is “binds”.

The target in another experiment is T5, 6xHis‐tagged LC3C (human, UniProt Q9BXW4 1-126).
T5 construct: LC3C, human; also called His6‐LC3C; source: E. coli, isolated
T5 sequence (Q9BXW4 1-126): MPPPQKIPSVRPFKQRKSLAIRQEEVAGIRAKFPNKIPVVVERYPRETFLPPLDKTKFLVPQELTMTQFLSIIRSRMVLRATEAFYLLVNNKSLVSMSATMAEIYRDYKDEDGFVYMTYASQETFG
Described as above. The settings on record: both partners purified.
Take B1: the binding result is “binds”.

Consider B2, for which the binding result is given as “binds”.

As for B3, the binding result is on record as “binds”.

Turning to B4, the binding result is listed as “binds”.

With B5, the binding result is “binds”.

Consider B6, for which the binding result is given as “binds”.

Take B7: the binding result is recorded as “binds”.

For B8, the binding result is “binds”.

Turning to B9, the binding result was “binds”.

Take B10: the binding result is reported as “binds”.

Regarding B11, the binding result is “binds”.

As for B12, the binding result is recorded as “binds”.

Consider B13, for which the binding result is “binds”.

The target of another experiment is T6, GABARAP (for ITC and NMR) (human, UniProt O95166 1-117).
T6 construct: GABARAP, human; source: E. coli NEB T7 Express, purified
T6 sequence (O95166 whole entry): as the sequence (O95166 whole entry) above
Briefly: ITC; peptide 0.4 mM titrated into 0.020 mM LC3/GABARAP protein in 26 steps, 25°C; 50 mM Na2HPO4, 100 mM NaCl, pH 7.0; one-site model. The settings on record: both partners purified. On the technique in general: In ITC the heat of successive injections is recorded.
Regarding B15, the Ka was found to be 20000 M⁻¹, binding was put at a Kd of 52 µM and the dH was -7.5 ± 0.1 kcal/mol.

Take B16: the Ka came out at 10000 M⁻¹; the Kd (as a rule, the free concentration of one partner at which half of the binding sites on the other are occupied at equilibrium, for simple one-to-one binding) was more than 100 µM; the dH was -1.1 ± 0.1 kcal/mol.

Source of the values: article PMC5538626 (EMBO Reports, 2017).
